Test results taken from article PMC3124622.

Test system: Nc1nc2nc[nH]c2c(=O)[nH]1
Test: purified protein, by the assay type
Conditions: guanine as substrate, 20 μM tRNA, 37 °C, pH 7.3

For “E. coli TGT C145V/T146V (Escherichia coli K-12; C145V/T146V)”, the Km (other: C145V/T146V) was 0.87 (0.18) μM and the kcat (other: C145V/T146V) was 0.00053 s⁻¹.
For “E. coli TGT V217G (Escherichia coli K-12; V217G)”, the Km (other: V217G) was 1.00 (0.10) μM and the kcat (other: V217G) was 0.000259 s⁻¹.
